Results: patent publication US11078465B2, “Alcohol dehydrogenase mutant and application thereof in synthesis of diaryl chiral alcohols” (Jiangnan University, priority 2018, dated 2021)

Assays:
Assay type in all cases: biochemical
[1] = Substrate specificity, specific activity
Method in brief: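 Alcohol dehydrogenase mutants were assayed with 1.0 mM NADPH and 1.0 mM ketone substrate (CPMK or other prochiral carbonyls) in 100 mM sodium phosphate, pH 7.0, at 30° C. NADPH oxidation was followed at 340 nm; one U oxidizes 1 μmol NADPH per min (ε 6220).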

[2] = Stereoselectivity on different substrates; conditions: configuration in brackets
Method in brief: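 Alcohol dehydrogenase mutants reduced prochiral ketones, including CPMK, aryl pyridyl and diaryl ketones, acetophenones and keto esters. Reactions were extracted into ethyl acetate and redissolved in ethanol. Conversion and ee were determined by chiral liquid and gas chromatography, with ee calculated from (S)- and (R)-CPMA molar concentrations.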

[3] = Kinetic analysis of alcohol dehydrogenase and mutants (NADPH oxidation, 340 nm, double reciprocal curve); conditions: substrate CPMK
Method in brief: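 His-tagged recombinant KpADH (wild type or mutant) purified by nickel affinity, desalted into Tris-HCl pH 7.0. Activity measured at 30° C in 100 mM sodium phosphate pH 7.0 with 1.0 mM NADPH and 1.0 mM CPMK by 340 nm NADPH absorbance decrease; kinetic parameters from double reciprocal plots over varied substrate and coenzyme concentrations.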

[4] = Asymmetric reduction in 20 mL biocatalytic system, conversion
Experimental: In an embodiment of the present disclosure, a chromatographic analysis method is as follows: 100 μL of reactant liquid is taken, 500 μL of ethyl acetate is added, shaking is performed for 1-2 min, centrifugation is performed at 12,000 rpm for 2-5 min, supernatant liquid is taken into a centrifuge tube, after an organic phase naturally volatilizes completely, 500 μL of chromatographically pure ethanol is added, and chiral liquid chromatography and gas chromatography are performed to analyze the transformation rate and the ee value.
The pure (R)-CPMA were recrystallized from ethyl acetate at 4° C. and gave 99.9% optical purity. […] Besides, the conversion cannot reach 100% with 24 h in the asymmetric reduction of (4-bromophenyl)-(phenyl)-methanone and p-nitrobenzophenone due to the low enzyme activity.

[5] = Stereoselectivity (ee) of CPMK reduction, chiral liquid chromatography; conditions: product configuration in brackets
Method in brief: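 ee is calculated from the (S)-CPMA and (R)-CPMA molar concentrations measured by chiral liquid chromatography; conversion also by GC. Samples are ethyl acetate extracts of the reaction, dried and redissolved in ethanol.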

[6] = Stereoselectivity on different substrates; conditions: configuration in brackets; remark: listed apart in the source
Method in brief: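 Reaction mixture extracted with ethyl acetate, dried organic phase redissolved in ethanol, then analysed by chiral liquid chromatography and gas chromatography. Values are transformation rate and ee, with ee from LC molar concentrations of (S)- and (R)-CPMA. Substrates were prochiral ketones reduced by alcohol dehydrogenase mutants.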

B1: E214Y/S237A: tyrosine for glutamate at position 214 and alanine for serine at position 237 of SEQ ID No. 2 (protein)
chain: MSVLISGASGYIAKHIVRVLLEQNYKVIGTVRSQDKADKLLKQYNNPNLSYEIVPEIANLDAFDDIFKKHGKEIKYVIHAASPVNFGAKDLEKDLVIPAINGTKNMFEAIKKYAPDTVERVVMTASYASIMTPHRQNDPTLTLDEETWNPVTEENAYENVFTAYCASKTFAEKEAWKFVKENSDAVKFKLTTIHPSFVFGPQNFDEDVTKKLNYTCEIINGLLHAPFDTKVEKTHFAQFIDVRDVAKTHVLGFQKDELINQRLLLCNGAFSQQDIVNVFNEDFPELKGQFPPEDKDTDLNKGVTGCKIDNEKTKKLLAFEFTPFHKTIHDTVYQILHKEGRV
modifications: Protein translated from synthetic DNA
specific activity ([1]; substrate [drawing 1]): 0.26 U/mg
specific activity ([1]; substrate [drawing 2]): 0.25 U/mg
specific activity ([1]; substrate [drawing 3]): 2.25 U/mg
specific activity ([1]; substrate [drawing 4]): 4.06 U/mg
specific activity ([1]; substrate [drawing 5]): 14.48 U/mg
specific activity ([1]; substrate [drawing 6], 4-chlorophenacyl chloride): 25.70 U/mg
specific activity ([1]; substrate [drawing 7]): 22.02 U/mg
specific activity ([1]; substrate [drawing 8]): 22.61 U/mg
specific activity ([1]; substrate [drawing 9], ethyl 4-chloro-3-oxobutanoate): 7.74 U/mg
Stereoselectivity (ee) ([2]; substrate [drawing 10], acetophenone): 32.1 (R)
Stereoselectivity (ee) ([2]; substrate [drawing 11], 4-chloroacetophenone): 97.9 (R)
Stereoselectivity (ee) ([2]; substrate [drawing 12], 4-chlorobenzoyl chloride): 61.6 (R)
Stereoselectivity (ee) ([2]; substrate [drawing 16], (4-bromophenyl)-(phenyl)-methanone): 98.5 (S)
Stereoselectivity (ee) ([2]; substrate [drawing 17], p-nitrobenzophenone): 99.2 (S)
Kcat [3]: 15.80 ± 0.25 s⁻¹
Km [3]: 620 ± 20 µM
Vmax [3]: 23.70 ± 0.37 µM/min/mg
Conversion rate ([4]; 4-nitroacetophenone 10 mM, 1 h): 32%
Conversion rate ([4]; 4-nitroacetophenone 10 mM, 2 h): 48%
Conversion rate ([4]; 4-nitroacetophenone 10 mM, 3 h): 60%
Conversion rate ([4]; 4-nitroacetophenone 10 mM, 4 h): 85%
Conversion rate ([4]; 4-nitroacetophenone 10 mM, 6 h): 95%
Conversion rate ([4]; 4-nitroacetophenone 10 mM, 8 h): 99.8%
Conversion rate ([4]; 4-nitroacetophenone 10 mM, 12 h): >99.9%
Conversion rate ([4]; 4-nitroacetophenone 10 mM, 24 h): >99.9%
Conversion rate ([4]; 4-nitroacetophenone 20 mM, 1 h): 22%
Conversion rate ([4]; 4-nitroacetophenone 20 mM, 2 h): 35.5%
Conversion rate ([4]; 4-nitroacetophenone 20 mM, 3 h): 55.8%
Conversion rate ([4]; 4-nitroacetophenone 20 mM, 4 h): 69.5%
Conversion rate ([4]; 4-nitroacetophenone 20 mM, 6 h): 90.4%
Conversion rate ([4]; 4-nitroacetophenone 20 mM, 8 h): 95.6%
Conversion rate ([4]; 4-nitroacetophenone 20 mM, 12 h): 99.2%
Conversion rate ([4]; 4-nitroacetophenone 20 mM, 24 h): 99.5%
Conversion rate ([4]; 4-nitroacetophenone 50 mM, 1 h): 10.5%
Conversion rate ([4]; 4-nitroacetophenone 50 mM, 2 h): 22.5%
Conversion rate ([4]; 4-nitroacetophenone 50 mM, 3 h): 35.9%
Conversion rate ([4]; 4-nitroacetophenone 50 mM, 4 h): 49.5%
Conversion rate ([4]; 4-nitroacetophenone 50 mM, 6 h): 60.9%
Conversion rate ([4]; 4-nitroacetophenone 50 mM, 8 h): 82.6%
Conversion rate ([4]; 4-nitroacetophenone 50 mM, 12 h): 85.5%
Conversion rate ([4]; 4-nitroacetophenone 50 mM, 24 h): 86.5%
ee in asymmetric synthesis of (R)-CPMA ([4]; 20 mL biocatalytic system, 30° C., pH 7.5): 99.1%
Conversion rate ([4]; CPMK 100 mM, 1 h): 66%
Conversion rate ([4]; CPMK 100 mM, 2 h): 80%
Conversion rate ([4]; CPMK 100 mM, 3 h): 89.5%
Conversion rate ([4]; CPMK 100 mM, 4 h): 94%
Conversion rate ([4]; CPMK 100 mM, 6 h): 96.6%
Conversion rate ([4]; CPMK 100 mM, 8 h): 99.5%
Conversion rate ([4]; CPMK 100 mM, 12 h): >99.9%
Conversion rate ([4]; CPMK 100 mM, 24 h): >99.9%
Conversion rate ([4]; CPMK 200 mM, 1 h): 45.5%
Conversion rate ([4]; CPMK 200 mM, 2 h): 65.5%
Conversion rate ([4]; CPMK 200 mM, 3 h): 75.9%
Conversion rate ([4]; CPMK 200 mM, 4 h): 88.8%
Conversion rate ([4]; CPMK 200 mM, 6 h): 95.6%
Conversion rate ([4]; CPMK 200 mM, 8 h): 99.1%
Conversion rate ([4]; CPMK 200 mM, 12 h): 99.7%
Conversion rate ([4]; CPMK 200 mM, 24 h): >99.9%
Conversion rate ([4]; CPMK 500 mM, 1 h): 25.5%
Conversion rate ([4]; CPMK 500 mM, 2 h): 33.5%
Conversion rate ([4]; CPMK 500 mM, 3 h): 45.8%
Conversion rate ([4]; CPMK 500 mM, 4 h): 59.9%
Conversion rate ([4]; CPMK 500 mM, 6 h): 77.9%
Conversion rate ([4]; CPMK 500 mM, 8 h): 90.2%
Conversion rate ([4]; CPMK 500 mM, 12 h): 95.7%
Conversion rate ([4]; CPMK 500 mM, 24 h): 99.5%
substrate concentration that could be afforded ([4]; p-nitrobenzophenone): 20 mM
e.e. [5]: 99.1 (R)
Stereoselectivity (ee) ([6]; substrate [drawing 13]): 18.2 (R)
Stereoselectivity (ee) ([6]; substrate [drawing 14], likely CPMK (values partly match Table 4)): 99.1 (R)
Stereoselectivity (ee) ([6]; substrate [drawing 15]): 89.3 (S)
Stereoselectivity (ee) ([6]; substrate [drawing 18]): 79.3 (S)
